Results reported in publication PMC2695463, “Conformational flexibility and molecular interactions of an archaeal homologue of the Shwachman-Bodian-Diamond syndrome protein”.

Biological target: T1, mthSBDS (Methanothermobacter thermautotrophicus, UniProt O26781 1-232, R175M)
T1 sequence: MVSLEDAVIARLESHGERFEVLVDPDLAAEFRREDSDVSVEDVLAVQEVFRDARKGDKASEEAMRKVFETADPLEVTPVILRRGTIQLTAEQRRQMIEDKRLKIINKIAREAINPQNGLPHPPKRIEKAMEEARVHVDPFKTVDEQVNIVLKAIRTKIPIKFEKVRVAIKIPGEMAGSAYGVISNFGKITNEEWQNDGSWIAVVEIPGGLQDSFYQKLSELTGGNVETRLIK
Test: EMSA; SPR: 10 mM HEPES pH 7.5, 150 mM NaCl, 5 uM EDTA, 0.05% P20, +/- 5 mM MgCl2, temperature not stated; SELEX: 25 mM Tris pH 7.5, 0.5 M NaCl; EMSA: protein 1e-12 to 1e-4 M, buffer not stated
Settings: protein: recombinant; tags: N-terminal 19-aa extension with His6 (pET28a)

Binder: AAAAAAAAAAAAAAAAAAAAAAAAAAAAAA (ssRNA) [30-base poly(A) RNA]
- binding result: no binding
